Source: patent publication US20040176285A1, “Tip39 polypeptides” (priority 2001, published 2004)
“Also recorded” adds a separate entry of the source. Blank lines part the entries; values can stand above or below the molecule they belong to. Where a SMILES comes first, the peptide text is derived from it. Where no end group is shown, it is not given here.

Assays:
PTH1R [1] = target: T1, PTH1R (Homo sapiens, UniProt Q03431); assay: Ligand-stimulated cAMP accumulation in HKrk-B7 cells; assay type: cell-based; design: expressed in transfected cells
T1 sequence (Q03431 27-593): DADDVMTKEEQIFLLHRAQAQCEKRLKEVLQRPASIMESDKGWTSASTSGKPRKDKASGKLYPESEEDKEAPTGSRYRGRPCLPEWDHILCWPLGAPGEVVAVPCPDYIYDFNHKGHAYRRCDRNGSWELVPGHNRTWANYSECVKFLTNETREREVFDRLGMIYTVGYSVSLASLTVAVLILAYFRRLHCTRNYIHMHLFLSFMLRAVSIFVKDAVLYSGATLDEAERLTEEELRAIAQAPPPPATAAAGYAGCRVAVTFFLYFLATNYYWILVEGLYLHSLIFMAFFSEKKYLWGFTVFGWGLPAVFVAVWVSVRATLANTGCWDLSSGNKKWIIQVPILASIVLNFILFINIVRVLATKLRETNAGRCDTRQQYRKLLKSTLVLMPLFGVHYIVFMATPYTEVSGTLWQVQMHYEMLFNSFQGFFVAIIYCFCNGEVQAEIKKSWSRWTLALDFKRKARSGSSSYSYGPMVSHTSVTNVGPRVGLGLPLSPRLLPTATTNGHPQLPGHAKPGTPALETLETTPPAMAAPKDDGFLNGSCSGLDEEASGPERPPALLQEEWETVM
Method: (§1) DMEM, Trypsin/EDTA, and penicillin G/streptomycin and horse serum were from Gibco/BRL, Life Technologies, Gaithersburg, Md. LLC-PK, expressing the recombinant human PTH1R (HKrk-B7 cells) and SaOS-2 cells expressing the wild-type PTH1R endogenously were cultured in DMEM supplemented with 10% heat-inactivated fetal bovine serum, 100 U/ml penicillin, 100 μg/ml streptomycin, as previously described (Gardella, T. J., et al., J. Biol. Chem. 271:19888-19893 (1996); Fukayama, S., et al., Endocrinology 134:1851-1858 (1994)); both cell lines were maintained in a humidified atmosphere containing 95% air and 5% CO2. After seeding, medium was replaced daily, until cells were used for radioligand binding or cAMP accumulation assays.
(§2) Na^125I (specific activity: 2,000 Ci/mmol) was purchased from DuPont/NEN, Boston, Mass. Fetal bovine serum, 3-isobutyl-1-methyl-xanthine (IBMX), and BSA were from Sigma, St. Louis, Mo., and trifluoroacetic acid (TFA) was from Pierce, Rockford, Ill. Radiolabeled rPTH(1-34) and PTHrP(1-36) were prepared by the chloramine-T method, followed by HPLC purification using a 30-50% ACN/0.1% TFA gradient over 30 minutes; radioreceptor assays were performed in 24-well plates as previously described (Gardella, T. J., et al., J. Biol. Chem. 271:19888-19893 (1996); Fukayama, S. et al., Endocrinology 134:1851-1858 (1994)). In brief, each well (final volume 500 μl) contained binding buffer (BB; 50 mM Tris-HCl (pH 7.7), 100 mM NaCl, 5 mM KCl, 2 mM CaCl2, 5% heat-inactivated horse serum, and 0.5% heat-inactivated fetal bovine serum), the ^125I-labeled PTH or PTHrP analog (100,000 to 200,000 cpm) was incubated in the absence or presence of increasing concentrations of unlabeled peptides. After 4 h at 16° C., buffer was completely removed, the cells were rinsed with cold BB and lysed with 1 M NaOH. The entire lysate was counted for γ-irradiation. Specific binding was determined after subtracting radioactivity bound in the presence of maximal concentrations of unlabeled competing peptide (10^−6 M). Agonist-dependent stimulation of cAMP accumulation by HKrk-B7 and SaOS-2 cells (48-well plates; stimulation at room temperature for 45 minutes) and the subsequent measurement of cAMP by radioimmunoassay was performed as previously described (Gardella, T. J., et al., J. Biol. Chem. 271:19888-19893 (1996); Bergwitz, C., et al., Endocrinology 139:723-732 (1998)). Data were analyzed and graphically illustrated using the graph-pad prism software package.
The values for EC50 and Vmax (mean±SE) are derived from at least three independent experiments.

PTH1R [2] = target: T1, PTH1R; assay: Radioreceptor binding assay with HKrk-B7 cells; design: expressed in transfected cells
Method: as §1, §2
The binding properties of these peptides were evaluated in radioreceptor assays with HKrk-B7 cells, which express the PTH IR at high density (approximately […]) (Carter, P. H., et al., Endocrinology 140:4972-4981 (1999)), using either radiolabeled rPTH(1-34) or PTHrP(1-36).
The calculated IC50 values (mean±SE) are derived from at least three independent experiments.

endogenous PTH1R = target: T2, endogenous PTH1R (Homo sapiens, UniProt Q03431); assay: Ligand-stimulated cAMP accumulation in SaOS-2 cells; assay type: cell-based
T2 construct: SaOS-2 cells expressing the wild-type PTH1R endogenously; endogenous in cells; host or cells: SaOS-2 human osteosarcoma cells
T2 sequence (Q03431 27-593): T1 sequence (Q03431 27-593)
Method: as §1
as §2, with “After 4 h at 16° C., buffer was completely removed, the cells were rinsed with cold BB and lysed with 1 M NaOH.” left out, “Agonist-dependent stimulation of cAMP accumulation by HKrk-B7 and SaOS-2 cells (48-well plates; stimulation at room temperature for 45 minutes) and the subsequent measurement of cAMP by radioimmunoassay was performed as previously described (Gardella, T. J., et al., J. Biol. Chem. 271:19888-19893 (1996); Bergwitz, C., et al., Endocrinology 139:723-732 (1998)).” left out, “package. […]” for “package.”

[3] = target: T3, human PTH/PTHrP receptor (PTH1R) (human, UniProt Q03431 27-593); assay: cell-based or functional assay
T3 sequence (looked up): T1 sequence (Q03431 27-593)

[4] = target: T3, human PTH/PTHrP receptor (PTH1R); assay: radioreceptor competition on HKrk-B7 cells; tracer 125I-rat [Nle8,21,Tyr34]PTH(1-34)amide
Method: (§3) Na¹²⁵I (specific activity: 2,000 Ci/mmol) was purchased from DuPont/NEN, Boston, Mass. Fetal bovine serum, 3-isobutyl-1-methyl-xanthine (IBMX), and BSA were from Sigma, St. Louis, Mo., and trifluoroacetic acid (TFA) was from Pierce, Rockford, Ill. […] After 4 h at 16° C., buffer was completely removed, the cells were rinsed with cold BB and lysed with 1 M NaOH. The entire lysate was counted for γ-irradiation. Specific binding was determined after subtracting radioactivity bound in the presence of maximal concentrations of unlabeled competing peptide (10⁻⁶ M). Agonist-dependent stimulation of cAMP accumulation by HKrk-B7 and SaOS-2 cells (48-well plates; stimulation at room temperature for 45 minutes) and the subsequent measurement of cAMP by radioimmunoassay was performed as previously described (Gardella, T. J., et al., J. Biol. Chem. 271:19888-19893 (1996); Bergwitz, C., et al., Endocrinology 139:723-732 (1998)). Data were analyzed and graphically illustrated using the graph-pad prism software package.

[5] = target: T3, human PTH/PTHrP receptor (PTH1R); assay: radioreceptor competition on HKrk-B7 cells; tracer 125I-[Tyr36]PTHrP(1-36)amide
Method: as §3

[6] = maximal cAMP accumulation, mean±SE

Molecule: PTHrP(1-6)/TIP(9-39): chimera of human PTHrP residues 1-6 and bovine TIP residues 9-39
stimulation of cAMP accumulation at the PTH1R (in words) (PTH1R [1]; HKrk-B7 cells): None of these peptides, however, stimulated cAMP formation; also recorded: lack of PTH1R activation

Molecule: CSCC[C@H](NC(=O)[C@H](Cc1ccc(O)cc1)NC(=O)[C@H](CO)NC(=O)[C@H](CC(N)=O)NC(=O)[C@H](CC(C)C)NC(=O)[C@H](Cc1c[nH]c2ccccc12)NC(=O)[C@H](Cc1c[nH]cn1)NC(=O)[C@H](CCCNC(=N)N)NC(=O)[C@H](CCCNC(=N)N)NC(=O)[C@H](CCC(=O)O)NC(=O)[C@H](CC(C)C)NC(=O)[C@H](C)NC(=O)[C@H](C)NC(=O)[C@H](CC(C)C)NC(=O)[C@H](CC(C)C)NC(=O)[C@H](CCCNC(=N)N)NC(=O)[C@H](C)NC(=O)[C@H](CCCNC(=N)N)NC(=O)[C@H](CCC(=O)O)NC(=O)[C@H](CCCNC(=N)N)NC(=O)[C@H](Cc1ccccc1)NC(=O)[C@H](C)NC(=O)[C@H](C)NC(=O)[C@H](CC(=O)O)NC(=O)[C@H](CC(=O)O)NC(=O)[C@H](C)NC(=O)[C@H](CC(C)C)NC(=O)[C@H](C)N)C(=O)N[C@@H](Cc1c[nH]cn1)C(=O)N[C@@H](CCCCN)C(=O)N[C@@H](CC(C)C)C(=O)N[C@@H](CC(C)C)C(=O)N[C@H](C(=O)N[C@@H](CC(C)C)C(=O)N[C@@H](CC(=O)O)C(=O)N[C@@H](C)C(=O)N1CCC[C@H]1C(N)=O)C(C)C [TIP(3-39)] (H-ALADDAAFRERARLLAALERRHWLNSYMHKLLVLDAP-NH2)
stimulation of cAMP accumulation at the PTH1R (in words) (PTH1R [1]; HKrk-B7 cells): lack of second messenger formation; also recorded: failed to stimulate cAMP accumulation

Molecule: [Ile^7]TIP(1-39): TIP(1-39) having Asp7 replaced by the corresponding isoleucine of PTH (SLALADIAAFRERARLLAALERRHWLNSYMHKLLVLDAP)
stimulation of cAMP accumulation at the PTH1R (in words) (PTH1R [1]; HKrk-B7 cells): None of these peptides, however, stimulated cAMP formation; also recorded: no activation of the PTH1R

Molecule: PTHrP(1-20)amide (AVSEHQLLHDKGKSIQDLRR-NH2) [reference compound]
inhibition of radioligand binding to the PTH1R (in words) (PTH1R [2]; either radioligand): did not inhibit the binding of either radioligand

Further lines, with some results ahead:

stimulation of cAMP accumulation at the PTH1R (in words) (PTH1R [1]; HKrk-B7 cells): lack of second messenger formation
Molecule: TIP(19-39): TIP39 analog truncated at the amino-terminus, residues 19-39, bovine sequence (ALERRHWLNSYMHKLLVLDAP)
inhibition of radioligand binding to the PTH1R (in words) (PTH1R [2]; either radioligand): did not inhibit the binding of either radioligand; also recorded: no detectable binding

Vmax (efficacy) of cAMP accumulation (PTH1R [1]; HKrk-B7 cells): 39±8 pmol/well
stimulation of cAMP accumulation at the PTH1R (in words) (PTH1R [1]; HKrk-B7 cells): full and potent agonist
HKrk-B7 Maxobs (PTH1R [1]; [6]): 39 ± 8 pmol/48-well
binding affinity higher than that of PTHrP(1-36) (PTH1R [2]): 2- to 4 fold
binding affinity weaker than that of PTH(1-34) (PTH1R [2]): 3- to 4 fold
improvement in apparent binding affinity (IC50) relative to TIP(1-39) (PTH1R [2]; either radioligand): 8- to 19 fold
Vmax (efficacy) of cAMP accumulation (endogenous PTH1R; SaOS-2 cells): 31±3 pmol/well
SaOS-2 Maxobs (endogenous PTH1R; [6]): 31 ± 3 pmol/48-well
Molecule: CC[C@H](C)[C@H](NC(=O)[C@H](CO)NC(=O)[C@H](CCCCN)NC(=O)CNC(=O)[C@H](CCCCN)NC(=O)[C@H](CC(=O)O)NC(=O)[C@H](Cc1c[nH]cn1)NC(=O)[C@H](CC(C)C)NC(=O)[C@H](CC(C)C)NC(=O)[C@H](CCC(N)=O)NC(=O)[C@H](Cc1c[nH]cn1)NC(=O)[C@H](CCC(=O)O)NC(=O)[C@H](CO)NC(=O)[C@@H](NC(=O)[C@H](C)N)C(C)C)C(=O)N[C@@H](CCC(N)=O)C(=O)N[C@@H](CC(=O)O)C(=O)N[C@@H](CC(C)C)C(=O)N[C@@H](CCCNC(=N)N)C(=O)N[C@@H](CCCNC(=N)N)C(=O)N[C@@H](CCCNC(=N)N)C(=O)N[C@@H](Cc1c[nH]cn1)C(=O)N[C@@H](Cc1c[nH]c2ccccc12)C(=O)N[C@@H](CC(C)C)C(=O)N[C@@H](CC(N)=O)C(=O)N[C@@H](CO)C(=O)N[C@@H](Cc1ccc(O)cc1)C(=O)N[C@@H](CCSC)C(=O)N[C@@H](Cc1c[nH]cn1)C(=O)N[C@@H](CCCCN)C(=O)N[C@@H](CC(C)C)C(=O)N[C@@H](CC(C)C)C(=O)N[C@H](C(=O)N[C@@H](CC(C)C)C(=O)N[C@@H](CC(=O)O)C(=O)N[C@@H](C)C(=O)N1CCC[C@H]1C(N)=O)C(C)C [PTHrP(1-20)/TIP(23-39)] (H-AVSEHQLLHDKGKSIQDLRRRHWLNSYMHKLLVLDAP-NH2)

increase in cAMP accumulation over basal (PTH1R [1]; HKrk-B7 cells, high molar concentrations): ~2 fold over basal
Molecule: TIP(23-39): TIP39 analog truncated at the amino-terminus, residues 23-39, bovine sequence (RHWLNSYMHKLLVLDAP)
inhibition of radioligand binding to the PTH1R (in words) (PTH1R [2]; either radioligand): did not inhibit the binding of either radioligand; also recorded: no detectable binding

EC50 of cAMP accumulation, SaOS-2 cells [3]: 0.3 nM
Molecule: SVSEIQLMHNLGKHLNSMERVEWLRKKLQDVHNY (not fully specified (C-terminus)) [[Tyr^34] human PTH(1-34)amide]

IC50 [4]: 31 nM
EC50 of cAMP accumulation, HKrk-B7 cells [3]: 1.4 nM
EC50 of cAMP accumulation, SaOS-2 cells [3]: 0.38 nM
IC50 [5]: 11 nM
Molecule: H-AVSEHQLLHDKGKSIQDLRRRHWLNSYMHKLLVLDAP-NH2 (also called PTHrP/TIP chimera) [PTHrP(1-20)/TIP(23-39)]
